# Numbering of substitutions follows the chain as printed. Numbers in names are those of the source.
# T1: cynomolgus monkey IL-33 expressed with a C-terminal hexahistidine tag (cynomolgus monkey)
# T1 construct: also called MfIL-33-6His; Mf-IL-33-6His
# T1 chain: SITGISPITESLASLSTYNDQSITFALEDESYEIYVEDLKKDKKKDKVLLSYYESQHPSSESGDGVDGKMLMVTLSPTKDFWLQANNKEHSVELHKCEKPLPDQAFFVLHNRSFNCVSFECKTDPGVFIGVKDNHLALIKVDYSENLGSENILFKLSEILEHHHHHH
# T2: biotinylated hIL-33 protein (R&D systems, Cat #3625-IL/CF) (human, UniProt O95760 112-270, biotinylated (sites not given))
# T2 construct: Same commercial protein as m21, biotin-labelled; also called biotin-hIL-33
# T2 sequence (looked up): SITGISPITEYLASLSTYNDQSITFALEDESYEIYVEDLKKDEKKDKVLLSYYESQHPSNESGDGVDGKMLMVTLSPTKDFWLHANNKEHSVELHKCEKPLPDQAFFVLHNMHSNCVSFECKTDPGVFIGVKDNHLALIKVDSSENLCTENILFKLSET
# T3: human IL-33 (R&D Systems, #3625-IL-010/CF) (human, UniProt O95760 112-270)
# T3 construct: Commercial recombinant protein; also called hIL-33; interleukin-33
# T3 sequence (looked up): T2 sequence (looked up)
# B1: H4H9672P (antibody, human IgG4, V domains shown)
# VH: EVQLVESGGGLVQPGGSLRLSCAASGFTLRSYVMYWVRQGPGKGLEGVSGISGSSGGTYYTDSVKGRFTISRDNSKNTLFLQMNSLRAEDTAVYFCARSVYSTTWYGGFQHWGQGTLVTVSS
# VL: DIQMTQSPSSVSVSVGDRVTITCRASQVISSWLAWYQLKPGKAPKLLIYAASSLQSGVPSRFSGSGSGTDFTLTISGLQPEDFAVYYCQQTNSFPLTFGGGTKVEIK
# notes: Human IgG4 Fc (H4H)
# B2: H4H9665P (antibody, human IgG4, V domains shown)
# VH: EVQLVESGGGLVQPGGSLRLSCAASGFTFSNYAMTWVRQAPGKGLEWVSTISGSGDNTYYADSVQGRFTISRGHSKNTLYLQMNSLRAEDTAVYYCAKPTYSRSWYGAFDFWGQGTMVTVSS
# VL: DIQMTQSPSSVSASVGDRVTITCRASQGISSWLAWYQQKPGKAPQLLIYAASRLQSGVPSRFWGSGSGTDFTLTISSLQPEDFATYYCQQANNFPFTFGPGTKVDIK
# notes: Human IgG4 Fc (H4H)
# B3: H4H9670P (antibody, V domains shown)
# VH: EVQLVESGGGLVQPGGSLRLSCAASGFTLSSYAMSWVRQAPGKGLEWVSAISGSGGSTYYADSVKGRFTISRDNSKNSLYLQLNSLRAEDTAVYYCAKTLYTTSWYGGFQHWGQGTLVTVSS
# VL: DIQMTQSPSSVSASIGDRVTITCRASQGISSWLAWYQQKPGKVPKLLIYAASSLQSGFPSRFSGSGSGTDFTLTISSLQPEDFATYYCQQTHSFPWTVGQGTKVEIK
# notes: Human IgG4 Fc (H4H)
# B4: H4H9675P (antibody, human IgG4, V domains shown)
# VH: EVQLVESGGNLEQPGGSLRLSCTASGFTFSRSAMNWVRRAPGKGLEWVSGISGSGGRTYYADSVKGRFTISRDNSKNTLYLQMNSLSAEDTAAYYCAKDSYTTSWYGGMDVWGHGTTVTVSS
# VL: DIQMTQSPSSVSASVGDRVTITCRASQGIFSWLAWYQQKPGKAPKLLIYAASSLQSGVPSRFSGSGSGTDFTLTISSLQPEDFAIYYCQQANSVPITFGQGTRLEIK
# notes: Human IgG4 Fc (H4H)
# B5: H4H9663P (antibody, human IgG4, V domains shown)
# VH: QVQLVQSGAEVKKPGASVKVSCKASGYTFTGHYMYWMRQAPGQGLEWMGWINPNSGGTNYAQKFQDRVTMTRDTSISTAYMELSRLRSDDTAVYYCARGRYGSSWYGGFEYWGQGTLVTVSS
# VL: DIQMTQSPSSVSASVGDRVTITCRASQGITSWLAWYQQKPGKAPNLLIYAAASLQSGVPSRFSGSGSGTDFTLTISSLQPEDFTTYYCQQAYSLPLTFGGGTKVEIK
# notes: Human IgG4 Fc (H4H)
# B6: H4H9667P (antibody, human IgG4, V domains shown)
# VH: EVQLVESGGGLVQPGGSLRLSCAASGFTFSTYSMHWVRQAPGKGLEYVSTINNNGDTTYYADSVKGRFTISRDNSKNTLYLQLGSLRPEDMAVYYCARQTYTSSWYGGFDSWGQGTLVTVSS
# VL: B2 VL with S30T, Q45K, R53N, W63S, S76T, N93S, F94L
# notes: Human IgG4 Fc (H4H)
# B7: H4H9666P (antibody, human IgG4, V domains shown)
# VH: QVQLVQSGAEVKKPGASVKVSCKASGYTFTSYGISWVRQAPGQGLEWMGWIRAYNGYTNYAQKFQGRVTMTTDTSTNTAYMELRTLNSDDTAVYYCARDRYSGSFHGNFDYWGQGTLVTVSS
# VL: B5 VL with T30F, N45K, L46V, A52S, S53N, Q55E, T84A, Y92N
# notes: Human IgG4 Fc (H4H)
# B8: H4H9664P (antibody, human IgG4, V domains shown)
# VH: QVQLVESGGGVVQPGRSLRLSCAASGFTFSSYGLHWVRQSPGKGLEWVALISYDGSNKYYADSVKGRFTISRDNSKNTLYLQMNSLRPEDTAGYFCAKSLYTTSWYGGFDYWGQGTLVTVSS
# VL: B2 VL with S30R, Q45N, R53S, W63S, N93S, F96P
# notes: Human IgG4 Fc (H4H)
# B9: H4H9671P (antibody, human IgG4, V domains shown)
# VH: B1 VH with V33F, Y35T, G40V, G50A, S54I, S99T, T103S, T104S, W105Y
# VL: B1 VL with V28G, L38Q, A50V, G77S, V85T
# notes: Human IgG4 Fc (H4H)
# Target: T1, cynomolgus monkey IL-33 expressed with …
# Experiment: BLI; mAb-1 on captured MfIL-33-6His
# Procedure: Binding competition between a panel of different anti-IL-33 monoclonal antibodies was determined using a real time, label-free bio-layer interferometry assay on an Octet® HTX biosensor (ForteBio, A Division of Pall Life Sciences). The experiment was performed at 25° C. using a buffer of 0.01M HEPES pH7.4, 0.15M NaCl, 3 mM EDTA, 0.05% v/v Surfactant Tween-20, and 0.1 mg/ml BSA (HBS-ET kinetics buffer) with the plate shaking at a speed of 1000 rpm. […] The antigen-captured biosensors were then saturated with a first anti-IL-33 monoclonal antibody (subsequently referred to as mAb-1) by immersion into wells containing 50 μg/mL solution of mAb-1 for 5 minutes. The biosensors were then dipped into wells containing a 50 μg/mL solution of a second anti-IL-33 monoclonal antibody (subsequently referred to as mAb-2) for 4 minutes. The biosensors were washed in HBS-ET kinetics buffer in between every step of the experiment. The real-time binding response was monitored during the experiment, and the maximum binding response for each binding step was recorded. The response of mAb-2 binding to MfIL-33-6His pre-complexed with mAb-1 was measured, and competitive/non-competitive behavior of different anti-IL-33 monoclonal antibodies with respect to each other was determined.
row,Binder,mAb-1 Binding (nm)
1,B1,0.56 nm
2,B2,0.63 nm
3,B3,0.56 nm
4,B4,0.52 nm
5,B5,0.54 nm
6,B6,0.5 nm
7,B7,0.57 nm
8,B8,0.61 nm
9,B9,0.58 nm

# Target: T2, biotinylated hIL-33 protein (R&D …)
# Experiment: competition ELISA, 30 pM biotin-hIL-33 on coated hST2-hFc
# Procedure: The ability of anti-IL-33 antibodies to block either human IL-33 (hIL-33) or cynomologus monkey IL-33 binding to the human ST2 receptor was measured using a competition sandwich ELISA. […] The antibody/IL-33 mixtures were incubated for 1 hour at room temperature before they were transferred to the hST2-hFc-coated microtiter plates. After incubating for 1 hour at room temperature, the wells were then washed, and plate-bound biotin-hIL-33 was detected with streptavidin conjugated with horse-radish peroxidase (HRP) (Thermo Scientific, Cat # N200), and plate-bound MfIL-33-6His was detected with a HRP conjugated anti-His monoclonal antibody (Qiagen, #34460). All samples were developed with a TMB solution (BD biosciences, #51-2607KC) to produce a colorimetric reaction and then quenched by acidification with 1M sulfuric acid before measuring absorbance at 450 nm on a Victor X5 plate reader. Data analysis was performed using a sigmoidal dose-response model within Prism™ software. […] Percent blockade was calculated as the ratio of the reduction in signal observed in the presence of antibody relative to the difference between the signal with IL-33 alone and background (signal from HRP-conjugated secondary antibody or streptavidin alone). The absorbance measured for the constant concentration of biotin-hIL-33 or MfIL-33-6His alone is defined as 0% blocking and the absorbance measured for no added IL-33 is defined as 100% blocking.
Binder,% Maximum blocking,IC50
B1,63%,0.44 nM
B2,55%,0.87 nM
B3,69%,0.48 nM
B4,58%,0.44 nM
B5,74%,0.5 nM
B6,78%,0.41 nM
B7,71%,0.6 nM
B8,73%,0.3 nM
B9,46%,0.46 nM

# Target: T3, human IL-33 (R&D Systems, …)
# Experiment: BLI; hIL-33 pre-mixed with mAb-2 Isotype control 1
# Procedure: Binding competition between a panel of different anti-IL-33 monoclonal antibodies was determined using a real time, label-free bio-layer interferometry assay on an Octet® HTX biosensor (ForteBio, A Division of Pall Life Sciences). The experiment was performed at 25° C. using a buffer of 0.01M HEPES pH7.4, 0.15M NaCl, 0.05% v/v Surfactant Tween-20, and 0.1 mg/ml BSA (HBS-ET kinetics buffer) with the plate shaking at a speed of 1000 rpm. To assess whether two antibodies were able to compete with one another for binding to human IL-33, a pre-mix assay format was used where 100 nM of human IL-33 (R&D Systems; #3625-IL-010/CF) was pre-mixed with 500 nM of different anti-IL-33 monoclonal antibodies (subsequently referred to as mAb-2) for at least 2 hours prior to running the binding competition assay. […] Following the capture step, unoccupied anti-mouse Fc polyclonal antibody and anti-human Fc polyclonal antibody on the Octet biosensors were saturated by submerging them for 4 minutes into wells containing 200 μg/mL of a non-specific monoclonal antibody with a mouse Fc or with a human Fc, respectively. Finally, the Octet biosensors were immersed for 4 minutes into wells containing the pre-mixed samples of 100 nM of human IL-33 and 500 nM of mAb-2. At the end of each cycle, the non-covalently captured anti-IL-33 antibodies along with the bound pre-complex of human IL-33 and mAb-2 were removed from the biosensors using three alternate 20 second immersions into 10 mM HCl followed by submerging into HBS-ET kinetics buffer. The biosensors were washed in HBS-ET kinetics buffer in between every step of the experiment. The real-time binding response was monitored during the binding events, and the binding response (in units of nm) at the end of every step was recorded.
row,Binder,mAb-1 Binding to the Pre-complex of mAb-2 & hIL-33
1,B1,0.16 nm
2,B2,0.14 nm
3,B3,0.19 nm
4,B4,0.13 nm
5,B5,0.17 nm
6,B6,0.23 nm
7,B7,0.15 nm
8,B8,0.16 nm
9,B9,0.13 nm

# Target: T3, human IL-33 (R&D Systems, …)
# Experiment: cell-based or functional assay
row,Binder,"IC50, inhibition of 10 pM hIL-33 activation of HEK293/hST2/NFkB-luciferase cells"
1,B1,2.5e-11 M
2,B2,9e-11 M
3,B3,1.2e-10 M
4,B4,7.5e-12 M
5,B5,1.3e-10 M
6,B6,7.1e-11 M
7,B7,3.5e-11 M
8,B8,5e-11 M
9,B9,2.5e-11 M

# Target: T1, cynomolgus monkey IL-33 expressed with …
# Experiment: cell-based or functional assay
row,Binder,"IC50, inhibition of 5 pM MfIL-33-6His activation of HEK293/hST2/NFkB-luciferase cells"
1,B1,2e-08 M
2,B2,6.6e-10 M
3,B3,1.7e-08 M
4,B4,4.1e-09 M
5,B5,2.7e-09 M
6,B6,1.2e-08 M
7,B7,7.8e-08 M
8,B8,2.6e-08 M
9,B9,4.8e-09 M

# From patent US20160362487A1 (Regeneron, published 2016)
